Laboratory results taken from the nanobody polyreactivity screen of Harvey et al. (2022).

Assay: yeast display, Sf9 membrane polyspecificity reagent, FACS + sequencing; frameworks hold sequencing errors
How it was run: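 Using colony PCR, genes from sorted yeast display clones were amplified, then sequenced on MiSeq at 2 × 250 and filtered by CDR length. The clones had been stained with 10% biotinylated, detergent-solubilized Sf9 membrane reagent for 1 hour at 4 °C and sorted by FACS into low and high (top ~1%) gates on anti-HA and streptavidin fluorescence. Polyreactivity labels come from the gate of origin.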

| Sequence | polyreactivity (PSR sort gate) |
| --- | --- |
| QVQLVESGGGIVEAGGSLRLSCAASGRIFNQYAMGWYRQAPGKEREFVAAIRWSGGRTYYADSVKGRFTISRDNAKNTVYLQMNRLKPEDTAVYYCAADLYGNNYWDGTTGYDYWGQGTQVTVSS | low polyreactivity |
| QLQLVESGGGLVQAGGSLRLSCAASGRIFSRYAMGWYRQATGKERELVAAINKSGGSTYYADSVKGRFTFSRDNAKNTVYLQMNSLKPEDTAVYYCNAVYYWYKGDYWGQGTLVTVSS | high polyreactivity |
| QVQLVESGGGLVQAGGSLRLSCAASGRIFPAYTMGWYRQAPGKERELVAAISRGGRTKYADSVKGRFTISRDNANNTVYLQLNSLKPEDTAVYYCDTVTTYGGVWYDYWGQGTQVTVSS | high polyreactivity |
| QVQLVESGGGLVQAGGSLRLICAASGSTFIPNAMGWYRQSPGKERELVAAISTGGSTNYADSVKGRFTISRDNAKNTVYLQINCLKPEDTAVYYCNARRGYYNPGRRFYYWGQGTQVTVSS | low polyreactivity |
| QVQLVESGGGLVQAGGSLRLSCAASGSTFGVNDMGWYRQAPGKEREFVADITTSGGSTYYADSVKGRFTISRDHAKNTVYLQMNSLKPEDTAVYYCAADLWPFEHDDYWGQGTQVTVSS | low polyreactivity |
| QVQLVESGGGLVQAGGSLRLSCAASGIIFWRYAMGWYRQAPGKERELVAGITSRGGSTYYADSVKGRFTISRDNAKNTVYLQMNSLKPEDTAVYYCNADWYGQLWWGVDYWGQGTQVTVSS | high polyreactivity |
| QVQLVESGVGLVQAGGSLRLSCAASGSIFDPYAMGWYRQPPGKERELVAAIPYSVGGTTYYADSVKGRFTISRDTAKNTVYLQMNSLKPEHTAVNYCAAEWWGNPFDYWGQGTQVTVST | high polyreactivity |
| QVQLVESGGGLVQAGGSLRLSCAASGFIIKYYAMGWYRQAPGKERELVAAISSGGRTYYADSVKGRFTISRDNAKNTVYLQMNSLKPEDTAVYYCAKTFRKSYDWGQGTQVTVSS | high polyreactivity |
| QLQLVESGGGLVQAGGSLRLSCAASGSIFYKYAMGWYRQAPGKERELVAAITWSGGRTYYADSVKGRFTISRDNAKNTVYLQMNSLIPEDTAVYYCAAVLRRYPGWVSDYNYWGQGTQVTVSS | high polyreactivity |
| QVQLVESGGCLVQAGGSLRLSCAASGNTLRTYGMGWYRQAPGKESEFVAAITYSGGSTYYADSVKGRFTISRDNAKNTVYLQMNSLKPEDTAVYYCAARYRSHYRRITPYDSWGQGTQVTVSS | high polyreactivity |
| QVQLVESGGGLVQAGGSLRLSCAASGIIFDNYAMGWYRQAPGKERELVAAISPGGSTYYADSVKGRFTISRDNAKNTVYLQMNSLKPEDTAVYYCNARKYTWYSSRFIRFDYWGQGTQVTVSS | high polyreactivity |
| QVQLVESGGGLVQAGGSLRLSCAASGGIFESYAMGWYRQAPGKERELVASISSGGSTYYADSVKGRFTISRDNAKNTVYLQMNSLKPEDTAVYYCEYYYWGQGTQVTVSS | low polyreactivity |
| QVQLVESGGALVQARGSLRLSSAASGSIFPFYAMPSYRQAPGKERELVAAISDRGGSTYYADSVKGRFTISRDNAKNTVYLQMNSLKPEDTAVYYCAVDGYGWGSSSSWFRSLYDYWGQGTQVTVSS | low polyreactivity |
| QVQLVESGGGLVQAGGSLRLSCAASGFTFDFYAMGWYRQAPGKERELVAAISKNDGTTYYADSVKGRFTISRDNAKNTVYLQMNSLKPEDTAVYYCAADVELWVFRGQQYDYWGQGTQVTVSS | low polyreactivity |
| QVQLVESGGGLVQAGGSLRLSCDASGSTFAPNTMGWYRQAPGKVREFVADISFSGGSTYYADSVKGRFSISRDNAKNTVYLQMTSRKPEDTAVYYCNAYYSYWFTQYDYWGQGTQVTVSS | high polyreactivity |
| QVQLVDSGGGLVQAGGSLRLSCAASGRTIVYYAMGWYRQAPGKERELVAAIRSGGSTNYADSVKGRFTISRDNAKNTVYLQMNSLKPEDTAVYYCNAVHYYYYKGDYWGQGTQVTVSS | high polyreactivity |

| Sequence | polyreactivity (PSR sort gate) |
| --- | --- |
| QVQLVESGGGLVQAGCSLRLSCAASGSNFGMYTMGWYRQAPGKESELVAAISGGGGSTYYADSVKGRFTISRDTAKNTVYVQMNSLKPEDSAVYYCAAVLDLSEWYDYWGQGTQVTVSS | low polyreactivity |
| QVQLVESGGGLVHDGRSLRLSCSASRRTYRLYAMGLYRQAPGQERELVAAITRGGRTNYADSVMGRFTISRDNAKNTVYLQMNSLKPEDTAVYYCADRYVERHTDYYYWGQGSQVTVSS | low polyreactivity |
| QVQLVESGGGLVQAGGSLRLSCAASGNIFKGYAMGWYRQAPGKERELVAAISKSGGSTYYADSVKGRFTISRDNAKNTVYLQMNSLKPDDTAVYYCNTYTYAGYNYWGQGTQVTVSS | high polyreactivity |
| QVQLVESGVGLVQAGGSLRLSCAASGRIFSRYTMGWYRQAPGKERELVAAIRYSGGLTYYADSVKGRFTISRDNAKNTVYLQMNSLKPEDTAVYYCATQVYLGYDKLYGYWGQGTQVTVSS | high polyreactivity |
| QVQLVESGGGIVQAGGSLRLSCAASGSIFRRYATGWYRQAPGKERELVAAISSGGSTYADSVKGRFTISRDNAKNTVYLQMNSLKPEDTAVYYCAVDWAQEDGYWGQGTQVTVSS | low polyreactivity |
| QVQHVESGGGLVQAGGSLRLSCAASGSTLSSYAMGWSRQAPGKERELVAAINSSGGRTYYADSVKGRFTISRDNAKNTVYLKMNSVKPEDTEVYYCAATRGRYREDEDYWGQGTQVTVSS | high polyreactivity |
| QVQQQESGGGLVQASGSLRLSCAASGNIFPDYVMGWYRQGPGQEREFVANITGGSTTNYADSVKGRFSISRDNAKNTVYLQMNCLKQEDTAVYYCAVNFGTVVLYLYWGQGTQVTVSS | high polyreactivity |
| QVQLVESGGGLVQAGGSLRLSCAASGSPFFVYAMGWYRQAPGTERELVAAISSRGSTYYADSVKGRFTIARDTAKNTVYLQMNSLKPEDTAVYYCAAEYTVSYLRMDYWGQGTQVTVSS | low polyreactivity |
| QVQLVQSGGGLVQAGGSLRLSCAASGYILNPYAMGWYRPAPGKERELVAAITSGTITYYADSVKGRFTITRDNAKNTVYLQMNSLKPEDTAVYYCAADSWAHYESYDYWGQGTQVTVSS | low polyreactivity |
| QVQLVESGGGLVQAGGSLRLSCAASGSTFVLYAMGWYRQAPGKERELVATISSGGSTYYADSVKGRFTISRDNAKNTVYLQMNSLKPEDTAVYYCAASYSRFVDWIGDPGYDYWGQGTQVTVSS | low polyreactivity |
| QVQLVEAGGGLVQAGGSLRLSCAASGRTFGSNAMGWYRQAPGKERELVAVITTSGGSTYYADSVKGRFTISRDNAKNTVYLQMNSLKPEDTAVYYCAKRVATGYIWYGYGYWGQGTQVTVSS | high polyreactivity |
| QVQLVESGGGLVQAGGSLRLSCAASGSIIGFNGMGWYRQAPGKERELVSAISSTGGSTYYADSVKGRFTISRDNAKNTVYLQMNSLKPEDTAVYICNTDYSKTIGDGYAGFDYWGQGTQGTVSS | low polyreactivity |
| QVQLVESGGGLVQAGGSLRLSCAASGRTFIVYPMGWYRQAPGKERELVAAISKRGGSTYYADSVKGRFTISRDNAKNPVYLQMNRLKPDDTAVYYCNAALSVELGYAYWGQGTQVTVSS | high polyreactivity |
| QVQLVESGGGLVKAGGSLRLSCAASGLTFRNNAMGWYRQAPGIERELVASINSGRSTNYADSVKGRFTISRDNAKNTVYLQMNSLKREDTAVYVCATRYYWYTRDSYDYWGQGTQVTVSS | low polyreactivity |
| QVQLVESGGGLVQGGSLRLSCAATGFTFPIYVMAWYRQAPGKERQLVDSISSVGSTNYADSVKGRFTISRDNAKNTVYLQMNSMKPEDTAVYYCNADAPNSYGGFDYWGQGTQVTVSS | low polyreactivity |
| QVQLVESGGGLVQAGGSLRLSCAASGSTFTRYDMGWYRQAPGKERELVAAISKSGGSTYYADSVKGRFTISRDNAKNTVYLQMNSLKPEDTAVYYCARGSTKYHIYSLDYWGQGTQVTVSS | low polyreactivity |
